Measured values reported in US12630600B2 (MEDIMMUNE LIMITED, priority 2022, dated 2026).
Starred links: 1 amine or outer side, 2 acyl side, 3 side chain; linkers in the order of their positions; H or OH if unused. Non-standard residues stand in square brackets, D forms with d. Groups on a side chain read outwards from the residue. No end group written: not given here. *: point of attachment. Trp(5-Br) = N[C@@H](Cc1c[nH]c2ccc(Br)cc12)C(=O)O; Bip = N[C@@H](Cc1ccc(-c2ccccc2)cc1)C(=O)O; C18 diacid = O=C(O)CCCCCCCCCCCCCCCCC(=O)*; γGlu = O=C(O)[C@H](CCC(=O)[*:2])N[*:1]; αMeF = C[C@](N)(Cc1ccccc1)C(=O)O; AEEA = NCCOCCOCC(=O)O; Aib = CC(C)(N)C(=O)O

B1: Peptide 431 (peptide)
peptide: H[Aib]QGTFTSDVSK[αMeF]LDTK([AEEA-AEEA-γGlu-γGlu-C18 diacid])RAQDFVAWLEA[Aib]G-NH2
modifications: N-terminus assumed
SMILES: CC(C)C[C@H](NC(=O)[C@H](Cc1c[nH]c2ccccc12)NC(=O)[C@H](C)NC(=O)[C@@H](NC(=O)[C@H](Cc1ccccc1)NC(=O)[C@H](CC(=O)O)NC(=O)[C@H](CCC(N)=O)NC(=O)[C@H](C)NC(=O)[C@H](CCCNC(=N)N)NC(=O)[C@H](CCCCNC(=O)COCCOCCNC(=O)COCCOCCNC(=O)CC[C@H](NC(=O)CC[C@H](NC(=O)CCCCCCCCCCCCCCCCC(=O)O)C(=O)O)C(=O)O)NC(=O)[C@@H](NC(=O)[C@H](CC(=O)O)NC(=O)[C@H](CC(C)C)NC(=O)[C@](C)(Cc1ccccc1)NC(=O)[C@H](CCCCN)NC(=O)[C@H](CO)NC(=O)[C@@H](NC(=O)[C@H](CC(=O)O)NC(=O)[C@H](CO)NC(=O)[C@@H](NC(=O)[C@H](Cc1ccccc1)NC(=O)[C@@H](NC(=O)CNC(=O)[C@H](CCC(N)=O)NC(=O)C(C)(C)NC(=O)[C@@H](N)Cc1c[nH]cn1)[C@@H](C)O)[C@@H](C)O)C(C)C)[C@@H](C)O)C(C)C)C(=O)N[C@@H](CCC(=O)O)C(=O)N[C@@H](C)C(=O)NC(C)(C)C(=O)NCC(N)=O
B2: Peptide 434 (peptide)
peptide: H[Aib]QGTFTSDVSK[αMeF]LDSK([AEEA-AEEA-γGlu-C18 diacid])RAQDFVR[Trp(5-Br)]LL[Aib]E-OH
modifications: N-terminus assumed
SMILES: CC(C)C[C@H](NC(=O)[C@H](Cc1c[nH]c2ccc(Br)cc12)NC(=O)[C@H](CCCNC(=N)N)NC(=O)[C@@H](NC(=O)[C@H](Cc1ccccc1)NC(=O)[C@H](CC(=O)O)NC(=O)[C@H](CCC(N)=O)NC(=O)[C@H](C)NC(=O)[C@H](CCCNC(=N)N)NC(=O)[C@H](CCCCNC(=O)COCCOCCNC(=O)COCCOCCNC(=O)CC[C@H](NC(=O)CCCCCCCCCCCCCCCCC(=O)O)C(=O)O)NC(=O)[C@H](CO)NC(=O)[C@H](CC(=O)O)NC(=O)[C@H](CC(C)C)NC(=O)[C@](C)(Cc1ccccc1)NC(=O)[C@H](CCCCN)NC(=O)[C@H](CO)NC(=O)[C@@H](NC(=O)[C@H](CC(=O)O)NC(=O)[C@H](CO)NC(=O)[C@@H](NC(=O)[C@H](Cc1ccccc1)NC(=O)[C@@H](NC(=O)CNC(=O)[C@H](CCC(N)=O)NC(=O)C(C)(C)NC(=O)[C@@H](N)Cc1c[nH]cn1)[C@@H](C)O)[C@@H](C)O)C(C)C)C(C)C)C(=O)N[C@@H](CC(C)C)C(=O)NC(C)(C)C(=O)N[C@@H](CCC(=O)O)C(=O)O
B3: Peptide 432 (peptide)
peptide: H[Aib]QGTFTSDVSK[αMeF]LDSK([AEEA-AEEA-γGlu-C18 diacid])RAQDFVR[Bip]LL[Aib]E-OH
modifications: N-terminus assumed
SMILES: CC(C)C[C@H](NC(=O)[C@H](Cc1ccc(-c2ccccc2)cc1)NC(=O)[C@H](CCCNC(=N)N)NC(=O)[C@@H](NC(=O)[C@H](Cc1ccccc1)NC(=O)[C@H](CC(=O)O)NC(=O)[C@H](CCC(N)=O)NC(=O)[C@H](C)NC(=O)[C@H](CCCNC(=N)N)NC(=O)[C@H](CCCCNC(=O)COCCOCCNC(=O)COCCOCCNC(=O)CC[C@H](NC(=O)CCCCCCCCCCCCCCCCC(=O)O)C(=O)O)NC(=O)[C@H](CO)NC(=O)[C@H](CC(=O)O)NC(=O)[C@H](CC(C)C)NC(=O)[C@](C)(Cc1ccccc1)NC(=O)[C@H](CCCCN)NC(=O)[C@H](CO)NC(=O)[C@@H](NC(=O)[C@H](CC(=O)O)NC(=O)[C@H](CO)NC(=O)[C@@H](NC(=O)[C@H](Cc1ccccc1)NC(=O)[C@@H](NC(=O)CNC(=O)[C@H](CCC(N)=O)NC(=O)C(C)(C)NC(=O)[C@@H](N)Cc1c[nH]cn1)[C@@H](C)O)[C@@H](C)O)C(C)C)C(C)C)C(=O)N[C@@H](CC(C)C)C(=O)NC(C)(C)C(=O)N[C@@H](CCC(=O)O)C(=O)O
B4: Peptide 430 (peptide)
peptide: H[Aib]QGTFTSDVSK[αMeF]LDSK([AEEA-AEEA-γGlu-γGlu-C18 diacid])RAQDFVRWLEA[Aib]G-NH2
modifications: N-terminus assumed
SMILES: CC(C)C[C@H](NC(=O)[C@H](Cc1c[nH]c2ccccc12)NC(=O)[C@H](CCCNC(=N)N)NC(=O)[C@@H](NC(=O)[C@H](Cc1ccccc1)NC(=O)[C@H](CC(=O)O)NC(=O)[C@H](CCC(N)=O)NC(=O)[C@H](C)NC(=O)[C@H](CCCNC(=N)N)NC(=O)[C@H](CCCCNC(=O)COCCOCCNC(=O)COCCOCCNC(=O)CC[C@H](NC(=O)CC[C@H](NC(=O)CCCCCCCCCCCCCCCCC(=O)O)C(=O)O)C(=O)O)NC(=O)[C@H](CO)NC(=O)[C@H](CC(=O)O)NC(=O)[C@H](CC(C)C)NC(=O)[C@](C)(Cc1ccccc1)NC(=O)[C@H](CCCCN)NC(=O)[C@H](CO)NC(=O)[C@@H](NC(=O)[C@H](CC(=O)O)NC(=O)[C@H](CO)NC(=O)[C@@H](NC(=O)[C@H](Cc1ccccc1)NC(=O)[C@@H](NC(=O)CNC(=O)[C@H](CCC(N)=O)NC(=O)C(C)(C)NC(=O)[C@@H](N)Cc1c[nH]cn1)[C@@H](C)O)[C@@H](C)O)C(C)C)C(C)C)C(=O)N[C@@H](CCC(=O)O)C(=O)N[C@@H](C)C(=O)NC(C)(C)C(=O)NCC(N)=O
B5: Peptide 429 (peptide)
peptide: H[Aib]QGTFTSDVSK[αMeF]LDSK([AEEA-AEEA-γGlu-C18 diacid])RAQDFVRWLEA[Aib]G-NH2
modifications: N-terminus assumed
SMILES: CC(C)C[C@H](NC(=O)[C@H](Cc1c[nH]c2ccccc12)NC(=O)[C@H](CCCNC(=N)N)NC(=O)[C@@H](NC(=O)[C@H](Cc1ccccc1)NC(=O)[C@H](CC(=O)O)NC(=O)[C@H](CCC(N)=O)NC(=O)[C@H](C)NC(=O)[C@H](CCCNC(=N)N)NC(=O)[C@H](CCCCNC(=O)COCCOCCNC(=O)COCCOCCNC(=O)CC[C@H](NC(=O)CCCCCCCCCCCCCCCCC(=O)O)C(=O)O)NC(=O)[C@H](CO)NC(=O)[C@H](CC(=O)O)NC(=O)[C@H](CC(C)C)NC(=O)[C@](C)(Cc1ccccc1)NC(=O)[C@H](CCCCN)NC(=O)[C@H](CO)NC(=O)[C@@H](NC(=O)[C@H](CC(=O)O)NC(=O)[C@H](CO)NC(=O)[C@@H](NC(=O)[C@H](Cc1ccccc1)NC(=O)[C@@H](NC(=O)CNC(=O)[C@H](CCC(N)=O)NC(=O)C(C)(C)NC(=O)[C@@H](N)Cc1c[nH]cn1)[C@@H](C)O)[C@@H](C)O)C(C)C)C(C)C)C(=O)N[C@@H](CCC(=O)O)C(=O)N[C@@H](C)C(=O)NC(C)(C)C(=O)NCC(N)=O

These binders were tested against human GLP-1 receptor (human, UniProt P43220) (assay: cell-based or functional assay).

cAMP production EC50 [nM] | Binder
0.0446 | B1
0.153 | B2
1.38 | B3
0.0244 | B4
0.015 | B5

The binders below were run against human glucagon receptor (human, UniProt P47871) (assay: cell-based or functional assay).

cAMP production EC50 [nM] | Binder
0.194 | B1
0.294 | B2
1.16 | B3
0.16 | B4
0.144 | B5
